Ends that are not written are not given here. * marks the point of attachment. N,N‑distearylglycyl = CCCCCCCCCCCCCCCCCCN(CCCCCCCCCCCCCCCCCC)CC(=O)*

Results on three substances are retold here after patent publication US6344436B1, “Lipophilic peptides for macromolecule delivery” (Baylor College of Medicine, priority 1996, dated 2002).

Data set [1] in a line: Particle size of peptide-macromolecule complex after enmeshment and condensation. The settings on record: for particle size: peptide added to DNA in the absence of condensing peptide, CHAPS micelles diluted below cmc. The class given is physicochemical. As to the method: Subsequently, the nucleic acid becomes coated with lipophilic peptide and enmeshed; forming a condensed nucleic acid/lipophilic peptide complex while CHAPS detergent monomers can be dialyzed out of the resulting mixture (FIGURE EIGHT).
The degree of condensation of the nucleic acid given the treatment of example two is shown as FIGURE NINE. When distearyl-glycyl-apoE-3^129-169 was added to DNA previously condensed with K8, the particle size increased only ˜20%. The addition of JTS-1 increased the particle size another 40%. By contrast, addition of distearyl-glycyl-apoE-3^129-169 to DNA in the absence of condensing peptide gave a smaller particle, about 60 nm. Condensation and enmeshment with the distearyl-glycyl-apoE-3^129-169Q142, the mutant peptide, also gave a small, 60 nm monodisperse particle population. When distearyl-glycyl-apoE-3^129-169 in 10 mM CHAPS was diluted without DNA being present, the resulting vesicles were ˜450 nm in diameter. […] Free DNA in the control remained at the top of the gradient, while the enmeshed-condensed complex was found at the bottom of the centrifugation tube.

The subject of another data set is 293 epithelial cells. As to the kind of experiment: Transfection of 293 epithelial cells grown in lovastatin to up-regulate LDL receptors. The class given is cell-based. The following applies: for transfection ability of peptide-macromolecule complexes (FIG. 10): comparison between complexes. The method, then: The ability of the formulations of example three to transfect cells was tested in 293 epithelial cells grown in 1 μg mL^−1 lovastatin overnight to up-regulate LDL receptors. […] As expected from the reduced binding of the mutant peptide to the LDL receptor, expression by mutant peptide complexes was about 5% of that observed with the wild-type apoE peptide complexes. We conclude that the diacyl-peptide functions as a condensing agent, an encapsulation agent, a targeting agent and a lytic agent. Apart from the well defined receptor ligand domain, the sequence regions that contain the other functions remain to be elucidated.

In the next data set the target is T1, LDL receptor (Homo sapiens, UniProt P01130).
T1 construct: endogenous in cells
T1 sequence (P01130 22-860, species assumed): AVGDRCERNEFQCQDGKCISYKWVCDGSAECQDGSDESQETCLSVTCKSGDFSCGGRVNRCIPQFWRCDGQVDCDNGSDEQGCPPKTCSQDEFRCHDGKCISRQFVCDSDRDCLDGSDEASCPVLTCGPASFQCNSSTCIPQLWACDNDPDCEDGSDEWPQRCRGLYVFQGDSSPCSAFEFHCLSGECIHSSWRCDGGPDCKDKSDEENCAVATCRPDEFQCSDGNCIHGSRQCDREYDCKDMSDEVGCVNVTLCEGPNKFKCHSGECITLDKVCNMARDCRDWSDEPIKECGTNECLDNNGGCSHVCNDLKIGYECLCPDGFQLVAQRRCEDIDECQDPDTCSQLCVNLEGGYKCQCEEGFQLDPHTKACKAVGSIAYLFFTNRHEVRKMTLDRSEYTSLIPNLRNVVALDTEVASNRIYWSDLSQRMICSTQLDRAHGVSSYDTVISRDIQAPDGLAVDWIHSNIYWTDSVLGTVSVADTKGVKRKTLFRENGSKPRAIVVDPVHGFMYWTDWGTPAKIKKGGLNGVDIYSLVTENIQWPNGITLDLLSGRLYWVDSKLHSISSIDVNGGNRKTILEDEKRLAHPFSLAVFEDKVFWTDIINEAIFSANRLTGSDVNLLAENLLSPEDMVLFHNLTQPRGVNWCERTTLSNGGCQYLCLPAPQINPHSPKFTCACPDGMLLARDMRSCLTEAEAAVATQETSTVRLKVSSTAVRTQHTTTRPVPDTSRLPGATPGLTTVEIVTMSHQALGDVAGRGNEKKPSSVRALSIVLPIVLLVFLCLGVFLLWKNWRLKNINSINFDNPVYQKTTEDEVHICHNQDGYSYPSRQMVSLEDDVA
As to the kind of experiment: Cytosis and degradation of labeled LDL complexed with lipophilic peptide (FIG. 4). In kind it is cell-based.

As for “GLFEALLELLESLWELLLEA [JTS-1, reference compound]”, in data set [1] (JTS-1 added to K8-condensed DNA plus distearyl-glycyl-apoE-3^129-169), the “further increase in particle size” value is on record as 40%. Besides, the “necessity of component for efficient gene transfer” value in the data set on 293 epithelial cells (293 epithelial cells (FIGURE TENc)) was “Neither the galtoselated K8 or JTS-1 were necessary”.
Regarding “distearyl-glycyl-apoE-3^129-169 ({N,N‑distearylglycyl}-STEELRVRLASHLRKLRKRLLRDADDLQKRLAVYQAGAREG)”, the “comparative size of peptide complexes” value in data set [1] (diameter after condensation of DNA (FIG. 9)) is given as “greatest reduction in diameter”. In data set [1], the particle size result is reported as “about 60 nm”. Moreover, the “increase in particle size” value in data set [1] (peptide added to DNA previously condensed with K8) was ~20%. Besides, the “diameter of resulting vesicles” value in data set [1] (peptide in 10 mM CHAPS diluted without DNA being present) was ~450 nm. Besides, the “cytosis and degradation of labeled LDL complexed with peptide (FIG. 4)” value with LDL receptor is “cytosed and subsequently degraded”. Besides, the “transfection ability of peptide-macromolecule complexes (FIG. 10)” value with 293 epithelial cells is “No significant transfection difference”.
Substance distearyl-glycyl-apoE-3^129-169(Q142) displayed a particle size in data set [1] of 60 nm. On LDL receptor, the “cytosis and degradation of labeled LDL complexed with peptide (FIG. 4)” value was “significantly less cytosis and degradation”. Moreover, the “expression relative to wild-type apoE peptide complexes” value in the data set with 293 epithelial cells (293 epithelial cells, 1 μg mL^−1 lovastatin overnight) was “about 5%”. Also, in the data set on 293 epithelial cells, the “transfection ability of peptide-macromolecule complexes (FIG. 10)” value is listed as “significantly less transfection”.
